Broadly, the Kd is the free concentration of one partner at which half of the binding sites on the other are occupied at equilibrium, for simple one-to-one binding. Higher therefore signals weaker binding.

Where a chain is given by its changes, count along the chain named. Numbers in names are those of the source.

We go through two molecules from paper PMC9346500 (EMBO Reports, 2022).

For assay [1], the target named is T1, M1-linked tetraubiquitin (M1-Ub4) (UniProt P0CG48 1-76; P0CG48 1-76; P0CG48 1-76; P0CG48 1-76). The assay is described as follows: NMR titration.
T1 sequence (P0CG48 1-304, one chain of several): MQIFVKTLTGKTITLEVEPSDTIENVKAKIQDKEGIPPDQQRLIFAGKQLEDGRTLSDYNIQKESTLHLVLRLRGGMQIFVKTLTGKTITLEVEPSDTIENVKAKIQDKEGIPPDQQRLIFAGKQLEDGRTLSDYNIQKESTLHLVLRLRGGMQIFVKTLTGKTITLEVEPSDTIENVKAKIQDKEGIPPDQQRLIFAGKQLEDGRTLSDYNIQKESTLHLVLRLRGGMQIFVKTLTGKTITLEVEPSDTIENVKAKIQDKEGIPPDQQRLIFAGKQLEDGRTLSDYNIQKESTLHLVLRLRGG
Assay [2] concerns the target HOTag6-G10-Ub (designed tetrameric ubiquitin construct). In words: NMR titration.
Assay [3] deals with T1, M1-linked tetraubiquitin (M1-Ub4). In words: fluorescence polarisation.
Assay [4] addresses HOTag6-G10-Ub (designed tetrameric ubiquitin construct). In words: fluorescence polarisation. (In fluorescence polarisation assays a small probe gives low polarisation when free and higher when bound to something large.)
Another assay has as its target ubiquitin (Ub) (UniProt P0CG48 1-76). In words: fluorescence polarisation.

B1: UBQLN2 450–624 (domain or fragment, UniProt Q9UHD9 450-624, looked up)
chain: RAMQALMQIQQGLQTLATEAPGLIPSFTPGVGVGVLGTAIGPVGPVTPIGPIGPIVPFTPIGPIGPIGPTGPAAPPGSTGSGGPTGPTVSSAAPSETTSPTSESGPNQQFIQQMVQALAGANAPQLPNPEVRFQQQLEQLNAMGFLNREANLQALIATGGDINAAIERLLGSQPS
Consider B1, for which the Kd was found to be 12.8 µM in assay [1] and 8.8 µM in assay [2].

B2: fluorescently-labeled UBQLN2 450–624 (S624C, Alexa Fluor 488) (domain or fragment, UniProt Q9UHD9 450-624, looked up)
chain: B1 chain with S175C
modifications: Alexa Fluor 488 C5 Maleimide on the cysteine of S624C
For the molecule B2, the Kd in assay [3] is 5.1 µM; in assay [4], 7 µM; with ubiquitin (Ub), 3.4 µM.
